We go through twelve molecules from patent US20020022718A1, “Genes identified as required for proliferation of E. coli” (priority 1999, published 2002).

The series deals with Klebsiella pneumoniae. Briefly: Growth inhibition by induced E. coli antisense RNA in Klebsiella pneumoniae. The settings on record: antisense RNA expression induced with IPTG, serial dilution plating. In kind it is cell-based. Also on record: key: +: a positive in Table V below means that at least 10 fold more cells were required to observe a colony on the induced plate than on the non-induced plate; −: If there was no effect of antisense RNA expression in a microorganism, the clone is minus in Table V below. The protocol: To study the effects of transcriptional induction in liquid medium, growth curves were carried out by back diluting cultures 1:200 into fresh media with or without 1 mM IPTG and measuring the OD450 every 30 minutes (min). To study the effects of transcriptional induction on solid medium, 10^2, 10^3, 10^4, 10^5, 10^6, 10^7 and 10^8 fold dilutions of overnight cultures were prepared. Aliquots of from 0.5 to 3 μl of these dilutions were spotted on selective agar plates with or without 1 mM IPTG. After overnight incubation, the plates were compared to assess the sensitivity of the clones to IPTG.
Molecule No. EcXA190, encoding a portion of the b3052 gene of Escherichia coli, was either transformed directly into Enterobacter cloacae, Salmonella typhimurium and/or Klebsiella pneumoniae or subcloned into an expression vector functional in these species and the subclones transformed into these organisms. Suitable expression vectors are well known in the art. These expression vectors were introduced into Enterobacter cloacae, Salmonella typhimurium and/or Klebsiella pneumoniae cells that were then assayed for growth inhibition according to the method of Example 1. After growth in liquid culture, cells were plated at various serial dilutions and a score determined by calculating the log difference in growth for INDUCED vs. UNINDUCED antisense RNA expression as determined by the maximum 10 fold dilution at which a colony was observed. If there was no effect of antisense RNA expression in one organism, the clone is given a score of zero “0” in that organism. In contrast, a score of “8” means that 10^8 times more cells were required to observe a colony formed on the induced state than in the non-induced state under the conditions used and in that organism.
In addition, the above methods were validated using other antisense nucleic acids which inhibit the growth of E. coli which were identified using methods similar to those described above. Expression vectors which inhibited growth of E. coli upon induction of antisense RNA expression with IPTG were transformed directly into Enterobacter cloacae, Klebsiella pneumonia or Salmonella typhimurium. The transformed cells were then assayed for growth inhibition according to the method of Example 1. After growth in liquid culture, cells were plated at various serial dilutions and a score determined by calculating the log difference in growth for INDUCED vs. UNINDUCED antisense RNA expression as determined by the maximum 10 fold dilution at which a colony was observed. If there was no effect of antisense RNA expression in a microorganism, the clone is minus in Table V below. In contrast, a positive in Table V below means that at least 10 fold more cells were required to observe a colony on the induced plate than on the non-induced plate under the conditions used and in that microorganism.

B1: EcXA125: antisense clone insert to E. coli yiiL (nucleic acid, listed as Escherichia coli)
antisense: TGTCGGTAAACAATGACAATTTGAGACAGAGTGAAAGGTCAGATTTGCGGAGTAATGCACATAATGGTTATTTAAATAAACCACATGAATCATTAATGGGTTATTCATTATTTTTGTGATTTACTCACAATGTATCAGGGAAATATAACTTACCGGGAGATGTAATATGTTTAATTTTTCAAATCGAAATTTAAAATATTGTGCCGGAGGCATCTCTGGCACATTGGGCAATTACGGCA
For B1, the “Sensitivity of K. pneumoniae to antisense nucleic acid (growth inhibition, induced vs. uninduced)” value was “−”.

B2: EcXA128: antisense clone insert to E. coli nagE (nucleic acid, listed as Escherichia coli)
antisense: CGCTGGAAAAAACCTAAAATATTCATCTTATTCCCCCTACGAGAACCCTATTTGGCTCGTTTCAAGCCGTATTTTTATTTTGCTGCAAATTGTACTGCCGATGTTCTGTAATCAGATTGTTAGATCATCTGCTACAGAGTGTGTGAAAATTTAATTCGTATCGCAAATTAAACGCGTGTCTTTTGTGAGTTTTGTCACCAAATATCGTTATTATCACTCCCTTTTACTGGCTAAACCAGAAAACTTATTT
Consider B2, for which the “Sensitivity of K. pneumoniae to antisense nucleic acid (growth inhibition, induced vs. uninduced)” value is “−”.

B3: EcXA121: antisense clone insert to E. coli yjfQ (nucleic acid, listed as Escherichia coli)
antisense: TGATCGATCAGGTAATTTGCCAGCGGTAGATAATTAGTGATGATTTGCACTGGCTTGCCACACATTTCCCGCCCAAGCAGAAACGCGGTGGAGCCGCAGTTGATGACTACGCTTTCGCCCGGATTAACCAGCTGCGAGGCCGCTTTAGCGATACGTACTTTTTCATCGTGATTCTGCGCCTGATGCAGATTCATCGGCGTCCAGCGCGGGCGCTGTTGGGTAATAGCTTCTGCGCCATTGCGCACTTTTTTCAGTTTGCCGCTTTCGTCAAGTTTATTGA
For the molecule B3, the “Sensitivity of K. pneumoniae to antisense nucleic acid (growth inhibition, induced vs. uninduced)” value is given as “−”.

B4: EcXA126: antisense clone insert to E. coli yicC (nucleic acid, listed as Escherichia coli)
antisense: CGATGTTCTGAATCTGCTCGCGCATCTGCTCAATCAACACTTTCAGCTCGATGGCGGAGTTTGTCACTTCGGCATTGATAGACTTCGACGCAAGAGTGTTCGACTCGCGGTTGA
Take B4: the “Sensitivity of K. pneumoniae to antisense nucleic acid (growth inhibition, induced vs. uninduced)” value is recorded as “−”.

B5: EcXA138: antisense clone insert to E. coli yhaC (nucleic acid, listed as Escherichia coli)
antisense: AGCCATTGTCCGGAGAATTTTCGTCTTTCTCGAGGGTATTATCTGAAAGTAACTCTTCTGAGCTAGAGTCTTCTATGTTTAAATCCATAGTATAATTAATTTGGGGGACGACCAGATAAGCATTTTCTTTGGTATTTTCATAATCTTCAATGATTATATCCGATGTAATCATATATTTTTTCTGATGAGAATTCTTTCATCTCTGTTAATTTAATTCTGTTCAAGCAATTGATGATTTTCGATGAGCTTTTATATATTTCTTTTGTTAATTCATTTTCTAATTTATCTGTAAGAGTTGCCCTTGG
Take B5: the “Sensitivity of K. pneumoniae to antisense nucleic acid (growth inhibition, induced vs. uninduced)” value is recorded as “−”.

B6: EcXA123: antisense clone insert to E. coli yheL (nucleic acid, listed as Escherichia coli)
antisense: CTGGTTTTAGCTTTTGCTTCGTAAACACGTAATAAAACGTCCTCACACAATATGAGGACGCCGAATTTTAGGGCGATGCCGAAAAGGTGTCAAGAAATATACAACGATCCCGCCATCACCAGGCCATCTGGCTGGGG
For B6, the “Sensitivity of K. pneumoniae to antisense nucleic acid (growth inhibition, induced vs. uninduced)” value is on record as “−”.

B7: EcXA137: antisense clone insert to E. coli proA, thrW (nucleic acid, listed as Escherichia coli)
antisense: CTTTTTACGGACAAACAATCATGCAACCAGAAGTTGAAGTATTAACCGATCATAATGAGCTAATTTGTTCGAGCTTTATTGAACACATTGCCAACACATTAAATTTAGGAGTGGTGTACAACTAAACCTGCAGCCAAGGATGTATAGTGAGCGAAGCCCTATCAGGCCTTTTTGGTCAGTAGATAAGATTGATCTTCGTTGATAGAATTTACTTACACCAGCTGTTACATTAAGATAATTTTTTGGTGGGAGAATGATAAGATCTTACGTAACAATTTGATTTTAATGGTGCCGATAATAGGAGTCGAACCTACGACCTTCGCATTACGAATGCGCTGCTCTACCAACTGAGCTATATCGGCCCTGAAAGGACATGTTCACGAACGTGAATCACGGTGGACAAGGTTAAAACTAACCGGGCGATGCGTCAATGGCCTTGTGAATCAAATGGCTACTTTTGCATCACCCGGTTTTATTTACGCACGAATGGTGTAATCACCAATGCCGATCCACTTGTAAGTGGTCAAGTGCTTNCAGCCCCATTGGGCCACGCGCCGTGGAGTTTTTGTGTGCTTACCGGCACTTTCGCACCCAGACCAAACTGGCCGCCGTCGGTAAAACGCGTAGAGGCGTTACGTAAACAGCGGACGAATCCACTTCGTNACAAAACGCTTGGCGTTGGCATATCGCGGGTCANGATCGCAATCGGAGTGTTGTGTGCCCGGGTTN
modifications: misc_feature (1)...(729): n = A,T,C or G
notes: antisense clone insert to E. coli proA, thrW
Take B7: the “Sensitivity of K. pneumoniae to antisense nucleic acid (growth inhibition, induced vs. uninduced)” value was “−”.

B8: EcXA130: antisense clone insert to E. coli atpE, atpB (nucleic acid, listed as Escherichia coli)
antisense: CATCATCACAGCGGCAGCCATGTACAGCAGATCCATATTCAGGTTTTCCATGACAGTCTCCAGTTTGTTTCAGTTAAAACGTAGTAGTGTTGGTAAATTAATGTTCTTCAGACGCCATCGACAGATAGACGATCGTCAGAACCATGAAGATGAAGGCTTGCAGCGTAATGATCAGGATGTGGAAAATGGCCCACGGCACATTCAGGATCCACTGTGACCACCACGGCAACAGACCAG
For B8, the “Sensitivity of K. pneumoniae to antisense nucleic acid (growth inhibition, induced vs. uninduced)” value was “−”.

B9: EcXA132: antisense clone insert to E. coli narV (nucleic acid, listed as Escherichia coli)
antisense: GGAGAGCGAAGGGCTATCCGGCCAGGGTGAAATTATCGCCGCGAACGCACAATTTGATATCGACGAGTAAAGTACTCAAACGGCGCGCTCCACACATGCACCAGTCGGGTGAACGGGAAGAGCAGGAAGATGGTCATTCCCAACACCAGATGCAGGCGGAAGACGAACGCTACGCCGTTGAGCATCTCTGACGATCCACCACGGAAAGTGA
B9: the “Sensitivity of K. pneumoniae to antisense nucleic acid (growth inhibition, induced vs. uninduced)” value was “−”.

B10: EcXA129: antisense clone insert to E. coli yadC, yadK (nucleic acid, listed as Escherichia coli)
antisense: GTATTACAACAAGAATACAGTGCTAAAAAAAGAATGTACCTGAAGATAGTCTTCATTTTTACTCCAATGTTTCTTTATTGTTATGGTTTGCGCTGTTTTTGTTTGTTATTCGTAGTAAATATCCACTAACACATGGCTCATAAGTTGACCAGATGTAACACTCAATGCAGGATCGATTTTTTGCATTCGGGTGCTAAATTTCCAGGATGAACCATTCATGTCATCCGACATTACTGG
On to B10, for which the “Sensitivity of K. pneumoniae to antisense nucleic acid (growth inhibition, induced vs. uninduced)” value is “−”.

B11: EcXA119: antisense clone insert to E. coli b2883 (nucleic acid, listed as Escherichia coli)
antisense: CTCTTTTTCTTCGAGATGGACGCAGTGAGCAAAGACACAGTTTTTACCGGTCAGGCCGTACTGATGGTAAACATCCAGATAACCATCATGGTCAGGATAAAGCGATTTCACCCAGGCAATTTCATCTTTGTTTTCACAGAGATGGGTATGTACCCACGTATCCGGATATTCTTCTTTCAGGCGTTGCGCCATCGCCATCTGTTCAGGAGATGAGGTCGGGGCGAAGCGTGGCGTAATCGCATATAGCAGACGACC
As to B11, the “Sensitivity of K. pneumoniae to antisense nucleic acid (growth inhibition, induced vs. uninduced)” value is listed as “−”.

B12: EcXA120: antisense clone insert to E. coli b1509 (nucleic acid, listed as Escherichia coli)
antisense: TCCGCGATCGCGGATAAAAAGGAGGATTTAAATAAGGCGTTGATGCGCCGTTTGAAGTCGGCAATATTAAGCCGCATGCCATCTCGACATGCGGCTTATACGGTTTACCAGCTATATTTCACTCCCAGCATGCCCTGAGTATCGCTATAGCCTTTATCACCTAGTTGCACACCGACATTCCCCCACAGGCTAAGGTTGTTATTTACTTTCGCCTCAACCCCGGTACGTACTTCACCGAGATTACGCGCACCTTCACGGCCTACGGTTTGACCATTCATCTTCACGGCGTAGACTTTGCTATTGTTGATCCAGTTCGCTTCAATGTAAGGCTGGAACTCACGCTGTTTACCATCGTCACGCTGGTGATGGCTGTTCAGGTAGGTTTTCACCCCAAG
As to B12, the “Sensitivity of K. pneumoniae to antisense nucleic acid (growth inhibition, induced vs. uninduced)” value was “−”.
